Source: article PMC9482650, “Quantitative fragmentomics allow affinity mapping of interactomes” (Nature Communications, 2022)

T1: DFNB31_3, Q9P202
T1 sequence (Q9P202 811-907, limits assumed, looked up): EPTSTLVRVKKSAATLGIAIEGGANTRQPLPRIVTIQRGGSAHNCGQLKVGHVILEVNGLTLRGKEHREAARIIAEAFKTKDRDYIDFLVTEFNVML

T2: SNTA1, Q13424
T2 sequence (Q13424 82-180, limits assumed, looked up): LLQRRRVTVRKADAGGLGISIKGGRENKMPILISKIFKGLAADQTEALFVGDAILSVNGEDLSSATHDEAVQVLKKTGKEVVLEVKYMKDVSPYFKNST

T3: ARHGEF11, O15085
T3 sequence (O15085 42-136, limits assumed, looked up): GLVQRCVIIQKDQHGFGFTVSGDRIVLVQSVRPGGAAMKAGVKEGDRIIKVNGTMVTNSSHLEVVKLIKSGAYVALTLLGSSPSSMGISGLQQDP

T4: CARD11, Q9BXL7
T4 sequence (Q9BXL7 662-765, limits assumed, looked up): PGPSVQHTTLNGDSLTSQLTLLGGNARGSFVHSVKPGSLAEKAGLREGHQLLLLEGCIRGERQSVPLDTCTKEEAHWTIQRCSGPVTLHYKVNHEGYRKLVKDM

T5: RADIL, Q96JH8
T5 sequence (Q96JH8 971-1071, limits assumed, looked up): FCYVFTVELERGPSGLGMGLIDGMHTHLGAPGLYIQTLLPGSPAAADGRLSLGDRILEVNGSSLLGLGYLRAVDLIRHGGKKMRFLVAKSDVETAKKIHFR

T6: GRIP1_3, Q9Y3R0
T6 sequence (Q9Y3R0 247-346, limits assumed, looked up): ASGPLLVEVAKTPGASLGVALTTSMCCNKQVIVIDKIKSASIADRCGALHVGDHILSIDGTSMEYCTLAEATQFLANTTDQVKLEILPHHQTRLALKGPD

T7: NHERF3_1, Q5T2W1
T7 sequence (Q5T2W1 4-100, limits assumed, looked up): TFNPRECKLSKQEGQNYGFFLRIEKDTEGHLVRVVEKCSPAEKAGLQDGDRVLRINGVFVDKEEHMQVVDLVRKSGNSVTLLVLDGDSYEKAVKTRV

T8: MPDZ_10, O75970
T8 sequence (O75970 1624-1722, limits assumed, looked up): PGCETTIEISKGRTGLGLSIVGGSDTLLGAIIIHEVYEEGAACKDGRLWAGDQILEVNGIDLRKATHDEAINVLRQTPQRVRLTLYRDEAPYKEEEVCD

T9: GRIP1_5, Q9Y3R0
T9 sequence (Q9Y3R0 568-668, limits assumed, looked up): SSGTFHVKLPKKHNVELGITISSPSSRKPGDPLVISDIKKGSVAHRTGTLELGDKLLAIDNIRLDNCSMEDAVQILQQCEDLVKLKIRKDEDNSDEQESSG

T10: LNX2_3, Q8N448
T10 sequence (Q8N448 463-564, limits assumed, looked up): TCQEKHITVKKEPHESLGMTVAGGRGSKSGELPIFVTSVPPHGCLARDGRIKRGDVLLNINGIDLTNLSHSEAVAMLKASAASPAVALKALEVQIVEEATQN


target: T1, DFNB31_3, Q9P202; assay: holdup assay; design: key: below the threshold = too weak to quantify, mostly under pKd 3.1 to 4; settings: plain residues with an end cap or a label only (N-terminal biotin on a linker: ado-ado)

Binder | pKd
QNRIITKTDV [SMCHD1, A6NHR9] | below the threshold

target: T2, SNTA1, Q13424; assay: holdup assay; design: key: below the threshold = too weak to quantify, mostly under pKd 3.1 to 4; settings: plain residues with an end cap or a label only (N-terminal biotin on a linker: ado-ado)

Binder | pKd
QNRIITKTDV [SMCHD1, A6NHR9] | 3.61

target: T3, ARHGEF11, O15085; assay: holdup assay; design: key: below the threshold = too weak to quantify, mostly under pKd 3.1 to 4; settings: plain residues with an end cap or a label only (N-terminal biotin on a linker: ado-ado)

Binder | pKd
QNRIITKTDV [SMCHD1, A6NHR9] | 4.13

target: SCRIB_3, Q14160; assay: holdup assay; design: key: below the threshold = too weak to quantify, mostly under pKd 3.1 to 4; settings: plain residues with an end cap or a label only (N-terminal biotin on a linker: ado-ado)
Sequence (Q14160 999-1103): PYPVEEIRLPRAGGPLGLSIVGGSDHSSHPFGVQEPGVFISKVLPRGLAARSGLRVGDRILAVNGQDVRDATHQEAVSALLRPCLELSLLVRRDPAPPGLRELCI

Binder | pKd
QNRIITKTDV [SMCHD1, A6NHR9] | 3.81

target: T4, CARD11, Q9BXL7; assay: holdup assay; design: key: below the threshold = too weak to quantify, mostly under pKd 3.1 to 4; settings: plain residues with an end cap or a label only (N-terminal biotin on a linker: ado-ado)

Binder | pKd
QNRIITKTDV [SMCHD1, A6NHR9] | below the threshold

target: MAGI2_5, Q86UL8; assay: holdup assay; design: key: below the threshold = too weak to quantify, mostly under pKd 3.1 to 4; settings: plain residues with an end cap or a label only (N-terminal biotin on a linker: ado-ado)
Sequence (Q86UL8 915-1017): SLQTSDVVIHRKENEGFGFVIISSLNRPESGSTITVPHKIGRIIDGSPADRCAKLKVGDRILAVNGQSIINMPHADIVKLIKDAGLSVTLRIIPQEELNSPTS

Binder | pKd
QNRIITKTDV [SMCHD1, A6NHR9] | below the threshold

target: GRIP2_3, Q9C0E4; assay: holdup assay; design: key: below the threshold = too weak to quantify, mostly under pKd 3.1 to 4; settings: plain residues with an end cap or a label only (N-terminal biotin on a linker: ado-ado)
Sequence (Q9C0E4 238-339): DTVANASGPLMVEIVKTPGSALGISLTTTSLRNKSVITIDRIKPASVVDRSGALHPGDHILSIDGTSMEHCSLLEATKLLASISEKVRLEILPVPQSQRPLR

Binder | pKd
QNRIITKTDV [SMCHD1, A6NHR9] | below the threshold

target: MAGI2_6, Q86UL8; assay: holdup assay; design: key: below the threshold = too weak to quantify, mostly under pKd 3.1 to 4; settings: plain residues with an end cap or a label only (N-terminal biotin on a linker: ado-ado)
Sequence (Q86UL8 1141-1229): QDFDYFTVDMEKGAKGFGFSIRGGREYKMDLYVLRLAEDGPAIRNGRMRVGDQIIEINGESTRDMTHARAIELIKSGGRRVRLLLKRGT

Binder | pKd
QNRIITKTDV [SMCHD1, A6NHR9] | below the threshold

target: GRIP2_5, Q9C0E4; assay: holdup assay; design: key: below the threshold = too weak to quantify, mostly under pKd 3.1 to 4; settings: plain residues with an end cap or a label only (N-terminal biotin on a linker: ado-ado)
Sequence (Q9C0E4 544-642): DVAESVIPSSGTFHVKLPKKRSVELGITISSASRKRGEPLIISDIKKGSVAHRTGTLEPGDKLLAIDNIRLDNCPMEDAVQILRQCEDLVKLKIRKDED

Binder | pKd
QNRIITKTDV [SMCHD1, A6NHR9] | below the threshold

target: NHERF4_2, Q86UT5; assay: holdup assay; design: key: below the threshold = too weak to quantify, mostly under pKd 3.1 to 4; settings: plain residues with an end cap or a label only (N-terminal biotin on a linker: ado-ado)
Sequence (Q86UT5 220-308): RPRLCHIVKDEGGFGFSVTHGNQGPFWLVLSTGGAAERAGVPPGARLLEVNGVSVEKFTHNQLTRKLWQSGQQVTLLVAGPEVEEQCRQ

Binder | pKd
QNRIITKTDV [SMCHD1, A6NHR9] | below the threshold

target: T5, RADIL, Q96JH8; assay: holdup assay; design: key: below the threshold = too weak to quantify, mostly under pKd 3.1 to 4; settings: plain residues with an end cap or a label only (N-terminal biotin on a linker: ado-ado)

Binder | pKd
QNRIITKTDV [SMCHD1, A6NHR9] | 3.64

target: FRMPD2_2, Q68DX3; assay: holdup assay; design: key: below the threshold = too weak to quantify, mostly under pKd 3.1 to 4; settings: plain residues with an end cap or a label only (N-terminal biotin on a linker: ado-ado)
Sequence (Q68DX3 944-1038): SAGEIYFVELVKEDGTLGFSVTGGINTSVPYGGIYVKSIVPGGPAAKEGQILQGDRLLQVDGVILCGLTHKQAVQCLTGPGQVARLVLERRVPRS

Binder | pKd
QNRIITKTDV [SMCHD1, A6NHR9] | below the threshold

target: DLG2_3, Q15700; assay: holdup assay; design: key: below the threshold = too weak to quantify, mostly under pKd 3.1 to 4; settings: plain residues with an end cap or a label only (N-terminal biotin on a linker: ado-ado)

Binder | pKd
QNRIITKTDV [SMCHD1, A6NHR9] | below the threshold

target: GORASP1, Q9BQQ3; assay: holdup assay; design: key: below the threshold = too weak to quantify, mostly under pKd 3.1 to 4; settings: plain residues with an end cap or a label only (N-terminal biotin on a linker: ado-ado)
Sequence (Q9BQQ3 1-208): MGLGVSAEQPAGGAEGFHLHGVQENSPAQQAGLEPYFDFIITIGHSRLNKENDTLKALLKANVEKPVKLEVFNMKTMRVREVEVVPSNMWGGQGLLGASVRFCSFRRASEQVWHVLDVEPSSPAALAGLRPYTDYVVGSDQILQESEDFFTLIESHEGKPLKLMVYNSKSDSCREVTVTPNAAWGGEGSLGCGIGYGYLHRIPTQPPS

Binder | pKd
QNRIITKTDV [SMCHD1, A6NHR9] | below the threshold

target: T6, GRIP1_3, Q9Y3R0; assay: holdup assay; design: key: below the threshold = too weak to quantify, mostly under pKd 3.1 to 4; settings: plain residues with an end cap or a label only (N-terminal biotin on a linker: ado-ado)

Binder | pKd
QNRIITKTDV [SMCHD1, A6NHR9] | below the threshold

target: T7, NHERF3_1, Q5T2W1; assay: holdup assay; design: key: below the threshold = too weak to quantify, mostly under pKd 3.1 to 4; settings: plain residues with an end cap or a label only (N-terminal biotin on a linker: ado-ado)

Binder | pKd
QNRIITKTDV [SMCHD1, A6NHR9] | below the threshold

target: MAGI3_2, Q5TCQ9; assay: holdup assay; design: key: below the threshold = too weak to quantify, mostly under pKd 3.1 to 4; settings: plain residues with an end cap or a label only (N-terminal biotin on a linker: ado-ado)
Sequence (Q5TCQ9 398-503): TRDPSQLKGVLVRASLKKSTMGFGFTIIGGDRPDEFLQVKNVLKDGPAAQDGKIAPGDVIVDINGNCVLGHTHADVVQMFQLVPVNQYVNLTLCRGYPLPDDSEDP

Binder | pKd
QNRIITKTDV [SMCHD1, A6NHR9] | 4.15

target: Inadl_4, Q8NI35; assay: holdup assay; design: key: below the threshold = too weak to quantify, mostly under pKd 3.1 to 4; settings: plain residues with an end cap or a label only (N-terminal biotin on a linker: ado-ado)
Sequence (Q8NI35 547-651): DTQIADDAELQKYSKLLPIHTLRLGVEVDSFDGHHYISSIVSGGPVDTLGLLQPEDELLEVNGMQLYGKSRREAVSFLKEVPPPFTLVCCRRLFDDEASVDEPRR

Binder | pKd
QNRIITKTDV [SMCHD1, A6NHR9] | below the threshold

target: T8, MPDZ_10, O75970; assay: holdup assay; design: key: below the threshold = too weak to quantify, mostly under pKd 3.1 to 4; settings: plain residues with an end cap or a label only (N-terminal biotin on a linker: ado-ado)

Binder | pKd
QNRIITKTDV [SMCHD1, A6NHR9] | 3.97

target: DLG1_2, Q12959; assay: holdup assay; design: key: below the threshold = too weak to quantify, mostly under pKd 3.1 to 4; settings: plain residues with an end cap or a label only (N-terminal biotin on a linker: ado-ado)
Sequence (Q12959 314-412): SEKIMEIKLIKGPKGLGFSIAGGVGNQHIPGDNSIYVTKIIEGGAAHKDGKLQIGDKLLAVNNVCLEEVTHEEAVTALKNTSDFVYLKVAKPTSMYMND

Binder | pKd
QNRIITKTDV [SMCHD1, A6NHR9] | 4.23

target: DLG1_3, Q12959; assay: holdup assay; design: key: below the threshold = too weak to quantify, mostly under pKd 3.1 to 4; settings: plain residues with an end cap or a label only (N-terminal biotin on a linker: ado-ado)
Sequence (Q12959 457-571): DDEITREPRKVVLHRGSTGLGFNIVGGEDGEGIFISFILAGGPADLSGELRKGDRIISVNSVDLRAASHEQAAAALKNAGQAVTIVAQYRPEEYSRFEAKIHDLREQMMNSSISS

Binder | pKd
QNRIITKTDV [SMCHD1, A6NHR9] | below the threshold

target: PTPN3, P26045; assay: holdup assay; design: key: below the threshold = too weak to quantify, mostly under pKd 3.1 to 4; settings: plain residues with an end cap or a label only (N-terminal biotin on a linker: ado-ado)
Sequence (P26045 505-587): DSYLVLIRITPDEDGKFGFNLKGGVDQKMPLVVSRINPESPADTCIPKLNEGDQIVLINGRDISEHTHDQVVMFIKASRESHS

Binder | pKd
QNRIITKTDV [SMCHD1, A6NHR9] | below the threshold

target: T9, GRIP1_5, Q9Y3R0; assay: holdup assay; design: key: below the threshold = too weak to quantify, mostly under pKd 3.1 to 4; settings: plain residues with an end cap or a label only (N-terminal biotin on a linker: ado-ado)

Binder | pKd
QNRIITKTDV [SMCHD1, A6NHR9] | below the threshold

target: MAGI2_2, Q86UL8; assay: holdup assay; design: key: below the threshold = too weak to quantify, mostly under pKd 3.1 to 4; settings: plain residues with an end cap or a label only (N-terminal biotin on a linker: ado-ado)
Sequence (Q86UL8 410-522): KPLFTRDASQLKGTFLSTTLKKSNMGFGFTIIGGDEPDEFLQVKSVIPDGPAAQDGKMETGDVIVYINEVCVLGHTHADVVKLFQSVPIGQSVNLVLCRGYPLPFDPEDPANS

Binder | pKd
QNRIITKTDV [SMCHD1, A6NHR9] | 4.08

target: T10, LNX2_3, Q8N448; assay: holdup assay; design: key: below the threshold = too weak to quantify, mostly under pKd 3.1 to 4; settings: plain residues with an end cap or a label only (N-terminal biotin on a linker: ado-ado)

Binder | pKd
QNRIITKTDV [SMCHD1, A6NHR9] | below the threshold

target: Inadl_1, Q8NI35; assay: holdup assay; design: key: below the threshold = too weak to quantify, mostly under pKd 3.1 to 4; settings: plain residues with an end cap or a label only (N-terminal biotin on a linker: ado-ado)
Sequence (Q8NI35 113-229): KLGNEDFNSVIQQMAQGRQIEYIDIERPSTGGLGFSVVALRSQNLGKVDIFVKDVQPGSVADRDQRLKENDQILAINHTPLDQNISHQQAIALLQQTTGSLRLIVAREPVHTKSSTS

Binder | pKd
QNRIITKTDV [SMCHD1, A6NHR9] | below the threshold

target: HTRA2, O43464; assay: holdup assay; design: key: below the threshold = too weak to quantify, mostly under pKd 3.1 to 4; settings: plain residues with an end cap or a label only (N-terminal biotin on a linker: ado-ado)
Sequence (O43464 355-458): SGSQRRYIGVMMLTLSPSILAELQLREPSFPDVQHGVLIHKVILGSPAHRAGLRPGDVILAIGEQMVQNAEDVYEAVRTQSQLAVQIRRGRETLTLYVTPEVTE

Binder | pKd
QNRIITKTDV [SMCHD1, A6NHR9] | below the threshold
